This experiment has as its target Aβ_(1–40) fibrils (amyloid β peptide 1–40, fibrillar form) (UniProt P05067). The experiment in a line: SPR; BIAcore 3000, CM5 chip; Aβ 1–40 fibrils immobilised by amine coupling at 2000 RU; ApoE4 injected at 20 μL/min until saturation; degassed PBS pH 7.4, 25 °C. (In general: SPR reads the build-up and loss of mass on a sensor chip optically.)

Sequence of Aβ_(1–40) fibrils (amyloid β peptide 1–40, fibrillar form) (P05067 672-711): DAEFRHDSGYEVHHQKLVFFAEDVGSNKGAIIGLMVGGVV

In general, Kd refers to the constant that tells how readily two partners part at equilibrium. On to “recombinant human ApoE4 (Apolipoprotein E, ε4 allele) (from UniProt P02649 19-317) (natural protein)”, for which the Kd worked out at 5 nM. This counts as single-digit nanomolar.

Source of the values: publication PMC6907347.
